The values below come from publication PMC12432127, “Assessing the potential of bacterial signal peptides for radiopharmaceutical applications” (Scientific Reports, 2025).

Residues, ends and D or L forms follow the SMILES beside them. Groups on a side chain read outwards from the residue. No end group written: not given here. *: point of attachment. FITC = O=C1OC2(c3ccc(O)cc3Oc3cc(O)ccc32)c2ccc(NC(=S)*)cc21; DOTA = O=C(O)CN1CCN(CC(=O)O)CCN(CC(=O)*)CCN(CC(=O)O)CC1; Ahx = NCCCCCC(=O)O; For = O=C*

Data set [1] deals with T1, FPR1 (Homo sapiens, UniProt P21462).
T1 construct: expressed in transfected cells; host or cells: HEK293T (transient, jetPEI)
T1 sequence (P21462 1-350): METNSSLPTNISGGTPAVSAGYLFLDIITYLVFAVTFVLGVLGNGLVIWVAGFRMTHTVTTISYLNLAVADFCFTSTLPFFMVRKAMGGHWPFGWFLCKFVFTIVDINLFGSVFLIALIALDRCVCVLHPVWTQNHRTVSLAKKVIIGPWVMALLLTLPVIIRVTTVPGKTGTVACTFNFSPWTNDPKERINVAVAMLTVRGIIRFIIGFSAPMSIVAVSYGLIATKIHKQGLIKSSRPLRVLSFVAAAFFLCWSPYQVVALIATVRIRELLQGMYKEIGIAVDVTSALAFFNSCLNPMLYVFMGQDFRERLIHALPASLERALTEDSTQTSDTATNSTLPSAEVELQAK
As to the kind of experiment: Cell internalization of radiotracer, FPR1 transfected HEK293T cells. To be noted: 1000-fold excess, all time points. In kind it is cell-based. The procedure:
The medium was removed from the wells and replaced by fresh complete growth medium (1.3 mL per well). The inhibitor solution BOC-FLFLF (1000-fold excess against the radiotracer, in PBS/DMSO) was added to the wells in the bottom row (100 µL per well). A solution of PBS and DMSO in the same ratio as the inhibitor solution was added to the wells of the top row (100 µL per well). To each well, the radiotracer solution in the desired concentration was added (100 µL per well). The plate was incubated at 37 °C for the time specified for each experiment. The supernatant was removed, and the cells were placed on ice and rinsed twice with ice cold PBS (1 mL per well). Sodium hydroxide (1 M, 2 × 1 mL) was added to detach the cells and the suspension was collected in counting tubes. The tubes were analyzed with an HIDEX gamma counter (HIDEX, Turku, Finland) using the appropriate detection window for the corresponding radionuclide.

A short description of data set [2]: Stability in human plasma (radio-HPLC). The format is in vitro ADME. The procedure: The radiolabelled compound (50 µL) was added to male human AB plasma (500 µL, Sigma Aldrich, USA, male AB) and incubated at 37 °C. Samples of 100 µL were taken at selected time points. The plasma proteins were precipitated with acetonitrile (-20 °C) and the precipitate was centrifuged for 1 min at 1500 rpm. The supernatant was analyzed by analytical radio-HPLC.

The nature of data set [3]: in vivo. Also noted: species or system mice. To be noted: male, NOD/SCID, mouse, iv, 250 pmol, total radioactivity. The procedure: (§1) All experiments involving animals were performed in accordance with an animal experimentation license approved by the Zurich Cantonal Veterinary Office, Switzerland (Jason P. Holland; license number ZH095/2023), and in compliance with the […] Animal Welfare Act. This study is reported in accordance with the ARRIVE guidelines (https://arriveguidelines.org). Six to eight-week old male NOD/SCID mice (17-20 g) were obtained from Charles River Laboratories (Lyon, France). Mice were provided with food and water ad libitum. For planar scintigraphy imaging and ex vivo biodistribution studies, mice were injected with 100 μL sterile saline formulations of ~ 250 pmol (~ 10 MBq) [^177Lu]Lu-[…] by intravenous tail-vein injection and anesthetized with isoflurane (2-4% in air). Imaging was performed on Gamma-eye scanner (Bioemtech, Greece) at 5 min and 1 h p.i. Directly after imaging at 1 h p.i., animals were euthanised by isoflurane asphyxiation followed by terminal exsanguination. A total of 13 tissues were removed, rinsed in water, dried in air for approx. 2 min., weighed and counted on a calibrated gamma counter for accumulation of activity. The mass of radiotracer formulation injected into each animal was measured and used to determine the total number of counts per minute (cpm) injected into each mouse by comparison to a standard syringe of known activity and mass.

On the set-up of data set [4]: species or system mice. To be noted: mouse, in vivo, iv. Here is the method:
as §1

Data set [5] addresses T2, f-MVPIK(TAMRA)I bacterial signal peptide derivative.
T2 chain: For-MVPIK(TAMRA)I
As to the kind of experiment: confocal fluorescence binding to transfected HEK293T cells.

The target in data set [6] is T3, f-MVPIK(FITC)I bacterial signal peptide derivative.
T3 chain: For-MVPIK(FITC)I
The data set is described as above.

As to BOC-FLFLF, the “effect of blocking agent on cell-bound activity of the radiotracer” value in data set [1] is “considerably reduced the cell-bound activity”.

Turning to `CC[C@H](C)[C@H](NC(=O)[C@H](CCCCNC(=O)CCCCCNC(=O)CN1CCN(CC(=O)O)CCN(CC(=O)O)CCN(CC(=O)O)CC1)NC(=O)[C@@H](NC(=O)[C@@H]1CCCN1C(=O)[C@@H](NC(=O)[C@H](CCSC)NC=O)C(C)C)[C@@H](C)CC)C(=O)O` [[^177Lu]Lu-f-MVPIK(Ahx-DOTA)I, metal not drawn] (For-MVPIK([Ahx-DOTA])I-OH), the “more hydrophilic fragment (partial degradation)” value in data set [2] is 24%. Moreover, in data set [2], the “state of conjugate in human plasma” value is on record as “completely oxidized”. The tissue uptake at 1 h in data set [3] (biodistribution blood) was 0.12 ± 0.02 %ID/g; in data set [3] (biodistribution bone), 0.75 ± 0.13 %ID/g; in data set [3] (biodistribution heart), 0.09 ± 0.01 %ID/g; in data set [3] (biodistribution lg intestine), 0.32 ± 0.12 %ID/g; in data set [3] (biodistribution lungs), 0.79 ± 0.12 %ID/g; in data set [3] (biodistribution muscle) it was 0.18 ± 0.03 %ID/g. The tissue uptake at 1 h in data set [3] (biodistribution pancreas) turned out to be 0.1 ± 0.02 %ID/g; in data set [3] (biodistribution skin), 0.49 ± 0.08 %ID/g; in data set [3] (biodistribution sm intestine), 0.45 ± 0.09 %ID/g; in data set [3] (biodistribution stomach), 0.17 ± 0.05 %ID/g; in data set [3] (uptake kidneys) it was 3.35 ± 0.19 %ID/g; in data set [3] (uptake liver) it was 3.02 ± 0.23 %ID/g. The tissue uptake at 1 h in data set [3] (uptake spleen) came to 4.43 ± 0.38 %ID/g. In data set [4], the “location of administered activity in scintigraphy images” value is “the majority of the administered activity was found in the bladder”. In data set [4], the “residual activity in scintigraphy images” value was “only minimal residual activity”.

B1: FPR1 (protein)
chain: METNSSLPTNISGGTPAVSAGYLFLDIITYLVFAVTFVLGVLGNGLVIWVAGFRMTHTVTTISYLNLAVADFCFTSTLPFFMVRKAMGGHWPFGWFLCKFVFTIVDINLFGSVFLIALIALDRCVCVLHPVWTQNHRTVSLAKKVIIGPWVMALLLTLPVIIRVTTVPGKTGTVACTFNFSPWTNDPKERINVAVAMLTVRGIIRFIIGFSAPMSIVAVSYGLIATKIHKQGLIKSSRPLRVLSFVAAAFFLCWSPYQVVALIATVRIRELLQGMYKEIGIAVDVTSALAFFNSCLNPMLYVFMGQDFRERLIHALPASLERALTEDSTQTSDTATNSTLPSAEVELQAK
On to B1, for which the values for the Kd in data set [5] and in data set [6] were 3.8 nM and 1.1 nM, respectively.

What is called tissue uptake is the percentage of the injected dose found per gram of tissue. One may read the Kd as the concentration at which binding is half-saturated. The low end stands for a tighter complex, the high end for a looser complex.
